Measured values: publication PMC11417181

Tests used:
[1] = molecular target: SCR-17/18H deglycosylated with PNGase F (human); assay: AUC; sedimentation velocity of the SCR fragments, 20 °C, 50,000 rpm, Hepes buffer (10 mM Hepes, 137 mM NaCl, pH 7.4), c(s) analysis in SEDFIT, proportions of monomer and dimer from peak integration; monomer to dimer
[2] = molecular target: C3b C3b (Homo sapiens) (UniProt P01024); details: cited from earlier work
Sequence of C3b C3b (Homo sapiens) (P01024 566-670): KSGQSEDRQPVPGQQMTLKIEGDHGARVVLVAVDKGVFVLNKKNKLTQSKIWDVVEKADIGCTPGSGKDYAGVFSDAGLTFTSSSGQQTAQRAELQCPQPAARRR

Sequence of Complement factor H (P08603 19-1231): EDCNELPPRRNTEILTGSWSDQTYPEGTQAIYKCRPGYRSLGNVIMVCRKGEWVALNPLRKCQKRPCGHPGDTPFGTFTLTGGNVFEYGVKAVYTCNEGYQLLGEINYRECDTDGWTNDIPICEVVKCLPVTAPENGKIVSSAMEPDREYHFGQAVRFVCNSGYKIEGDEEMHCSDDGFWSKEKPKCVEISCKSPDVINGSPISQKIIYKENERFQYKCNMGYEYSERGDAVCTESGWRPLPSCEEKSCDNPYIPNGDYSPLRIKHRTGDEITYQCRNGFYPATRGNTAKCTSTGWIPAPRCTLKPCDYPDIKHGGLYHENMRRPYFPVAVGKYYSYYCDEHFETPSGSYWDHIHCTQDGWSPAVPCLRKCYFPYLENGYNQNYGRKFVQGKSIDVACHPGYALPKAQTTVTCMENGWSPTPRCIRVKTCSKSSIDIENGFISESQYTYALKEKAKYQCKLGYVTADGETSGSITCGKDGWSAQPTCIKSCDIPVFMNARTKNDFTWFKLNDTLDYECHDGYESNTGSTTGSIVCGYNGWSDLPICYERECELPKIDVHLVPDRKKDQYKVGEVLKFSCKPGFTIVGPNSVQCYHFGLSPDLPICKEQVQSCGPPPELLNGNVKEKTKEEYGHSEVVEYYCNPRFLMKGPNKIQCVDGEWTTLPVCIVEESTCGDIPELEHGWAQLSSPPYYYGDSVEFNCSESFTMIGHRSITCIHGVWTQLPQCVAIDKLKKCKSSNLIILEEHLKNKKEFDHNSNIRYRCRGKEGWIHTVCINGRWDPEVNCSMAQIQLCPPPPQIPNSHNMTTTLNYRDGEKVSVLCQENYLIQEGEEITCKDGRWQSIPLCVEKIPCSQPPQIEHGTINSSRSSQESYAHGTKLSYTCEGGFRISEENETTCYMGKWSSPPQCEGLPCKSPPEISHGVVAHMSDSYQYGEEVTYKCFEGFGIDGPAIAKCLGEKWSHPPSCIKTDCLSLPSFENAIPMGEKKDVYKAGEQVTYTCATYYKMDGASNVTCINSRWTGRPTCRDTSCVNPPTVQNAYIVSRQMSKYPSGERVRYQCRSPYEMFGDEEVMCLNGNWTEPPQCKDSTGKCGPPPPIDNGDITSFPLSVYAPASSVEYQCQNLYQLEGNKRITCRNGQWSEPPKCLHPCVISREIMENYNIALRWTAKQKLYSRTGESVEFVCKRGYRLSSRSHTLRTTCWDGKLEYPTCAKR

proportion of dimer [1] | stoichiometry N [1] | Substance | Kd [2]
16% | 2 | SCR-17/18H deglycosylated with PNGase F (domain or fragment) | –
– | – | Complement factor H (from UniProt P08603) | 1060 nM
